Entries after “also recorded” stand apart in the source; their conditions may differ. Positions of bridges follow the written chain, without caps; N, C: chain ends. Residues, ends and D or L forms follow the SMILES beside them. No end group written: not given here.
Assays:
pepsin [1] = biological target: T1, pepsin (Sus scrofa, UniProt P00791); experiment: Pepsin digestion resistance in simulated gastric fluid, RP-HPLC; assay type: in vitro ADME, porcine; parameters: purchased Sigma Aldrich P7012; conditions: HPLC; for resistance to pepsin, Example 7 conditions (in words): 500 U pepsin (5000 U/ml) in SGF, 30 min at room temperature, with or without DTT; for resistance to pepsin digestion (in words): 500 U/ml pepsin (50 U per reaction) in SGF, 30 minutes at 37.5° C.
T1 sequence (P00791 60-385): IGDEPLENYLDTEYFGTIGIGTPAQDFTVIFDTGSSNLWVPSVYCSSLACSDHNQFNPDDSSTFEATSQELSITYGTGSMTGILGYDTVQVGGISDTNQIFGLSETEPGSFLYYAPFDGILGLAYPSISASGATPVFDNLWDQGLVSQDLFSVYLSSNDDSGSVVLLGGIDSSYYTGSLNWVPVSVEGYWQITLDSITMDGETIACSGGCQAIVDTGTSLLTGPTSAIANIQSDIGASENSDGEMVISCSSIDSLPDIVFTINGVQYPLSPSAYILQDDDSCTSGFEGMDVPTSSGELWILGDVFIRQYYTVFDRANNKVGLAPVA
How it was run: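 Peptide (12.5 μg) incubated 30 min at 37.5 °C with or without 500 U/ml pepsin in simulated gastric fluid (pH 1.05; 2% NaCl in 0.7% HCl); some reactions quenched with 100 mM Tris and 10 mM DTT. Intact peptide followed by C-18 RP-HPLC (5–45% acetonitrile/0.1% TFA over 10 min) at 214 and 280 nm.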

[2] = Stability in simulated gastric fluid (SGF, pH 1.05), RP-HPLC; assay type: physicochemical; conditions: HPLC vs non-reduced peptide
Experimental: (§1) Peptides were first suspended in 500 ul of ddH2O to a stock concentration of 2 mg/ml. Reactions were prepared by adding 12.5 ug of peptide from the stock solution to a 10 mM solution of DTT in PBS and allowed to incubate at room temperature for 30 minutes. Other reactions were prepared with 12.5 μg peptide with or without 500 U/ml pepsin in simulated gastric fluid (SGF; pH 1.05; […] sodium chloride in 0.7% (v/v) hydrochloric acid) and were incubated for 30 minutes at 37.5° C. Some reactions were quenched with a final concentration of 100 mM Tris base and 10 mM dithiothreitol (DTT). Some reactions were performed in all of the above components, including simulated gastric fluid, pepsin, Tris, and DTT (referred to as SPTD). Reversed phase HPLC (RP-HPLC) was run on samples using an Agilent 1260 HPLC equipped with a C-18 Poroshell 120B column. Sample were analyzed by a gradient method with a mobile phase of Solvent A (water with 0.1% TFA) and Solvent B (acetonitrile with 0.1% TFA). Solvent B was ramped up from 5%-45% of the mobile phase over a period of 10 minutes. Peptides were detected at an absorbance of 214 nm and 280 nm.
This example illustrates peptide stability in biological conditions including in the presence of reducing agents, proteases, oxidative conditions, acidic conditions, and simulated gastric fluids. […] Various peptides were suspended in 500 μl of ddH2O at a stock concentration of 2 mg/ml. This was then diluted in accord with the reaction conditions to prevent adverse buffering effects. Reactions were prepared with 12.5 μg peptide dissolved in solution and, in some samples, additionally suspended in a 10 mM solution of DTT, simulated gastric fluid (pH 1.05; […] sodium chloride in 0.7% (v/v) hydrochloric acid), 500 U pepsin (5000 U/ml pepsin), 50 U trypsin (500 U/ml trypsin) with 1 mg/ml inhibitor in PBS, or a combination of any of these conditions. All protease reactions were incubated for 30 min at room temperature and then quenched. Pepsin reactions were quenched by adding Tris base to a final concentration of 0.075 M. Trypsin reactions were quenched by adding excess soybean trypsin inhibitor. RP-HPLC was then run on samples using an Agilent 1260 HPLC equipped with a C-18 Poroshell 120B column. Sample were analyzed by a gradient method with a mobile phase of Solvent A (water with 0.1% TFA) and Solvent B (acetonitrile with 0.1% TFA). Solvent B was ramped up from 5%-45% of the mobile phase over a period of 10 minutes.

trypsin = trypsin (Sus scrofa, UniProt P00761); experiment: Trypsin digestion resistance of soluble peptide, RP-HPLC; assay type: in vitro ADME, porcine; parameters: purchased Sigma Aldrich 6567; conditions: HPLC; for resistance to trypsin, Example 7 conditions (in words): 50 U trypsin (500 U/ml), 30 min at room temperature, with or without 10 mM DTT; for resistance to trypsin digestion (in words): 500 U/ml trypsin (50 U per reaction), 30 minutes at 37.5° C.
Chain of trypsin (P00761 9-231): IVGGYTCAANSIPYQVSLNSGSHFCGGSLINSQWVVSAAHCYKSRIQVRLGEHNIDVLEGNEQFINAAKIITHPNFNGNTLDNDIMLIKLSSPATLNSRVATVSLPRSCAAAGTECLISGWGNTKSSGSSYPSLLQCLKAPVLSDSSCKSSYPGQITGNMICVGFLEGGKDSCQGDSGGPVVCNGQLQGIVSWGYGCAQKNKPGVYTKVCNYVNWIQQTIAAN
How it was run: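 12.5 μg soluble peptide digested with 500 U/ml porcine trypsin in PBS, 30 min at 37.5° C; quenched with soybean trypsin inhibitor, with or without 10 mM DTT reduction afterwards. Intact peptide assessed by C-18 RP-HPLC, 5-45% acetonitrile/0.1% TFA gradient over 10 min.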

pepsin [3] = biological target: T1, pepsin; experiment: Stability in SPTD (simulated gastric fluid, pepsin, Tris and DTT), RP-HPLC; assay type: in vitro ADME; conditions: SGF pH 1.05 with 500 U/ml pepsin, 100 mM Tris, 10 mM DTT
Experimental: as §1

TEAD protein = experiment: Binding of surface-displayed (SDGF) peptide to biotinylated target protein after reducing agent, flow cytometry; assay type: cell-based; conditions: HEK-293 cells displaying peptide, 20 nM biotinylated target protein
Experimental: Designed or engineered peptides of this disclosure were also tested to evaluate if the peptides' binding activity to their target protein (e.g., TEAD protein) was affected by exposure to reducing conditions. HEK-293T suspension cells were transfected with a surface display GFP FasL(SDGF) vector comprising SEQ ID NO: 39 (SDGF-SEQ ID NO: 39) or SDGF vector comprising SEQ ID NO: 43 (SDGF-SEQ ID NO: 43) construct. Cultures were grown for two days, followed by incubation in 10 mM GSH or 10 mM DTT. Finally, cells were stained with biotinylated-target protein to evaluate the binding activity of a peptide to the target protein. FIG. 15 illustrates the stability of peptides of SEQ ID NO: 39 and SEQ ID NO: 43 after exposure to a reducing agent. Each peptide was expressed on a cell surface and tested for binding to a target protein after cells expressing SDGF-SEQ ID NO: 43 or SEQ ID NO: 39 were exposed to a reducing agent. FIG. 15A illustrates a flow cytometry plot showing binding of HEK-293 suspension cells transfected with SDGF-SEQ ID NO: 39 (GFP) incubated for 5 minutes in PBS, 10 mM DTT, or 10 mM reduced glutathione (GSH) before staining with 20 nM biotinylated target protein and 20 nM AF647-streptavidin. FIG. 15B illustrates a flow cytometry plot showing binding of HEK-293 suspension cells transfected with SDGF-SEQ ID NO: 43 (GFP) incubated for 5 minutes in PBS, 10 mM DTT, or 10 mM reduced glutathione (GSH) before staining with 20 nM biotinylated target protein and 20 nM AF647-streptavidin. FIG. 15C illustrates quantification of the AF647 mean fluorescence intensity (MFI) of cells falling within the “slice” gate shown in FIG. 15A and FIG. 15B. […] In other words, peptides of SEQ ID NO: 39 and SEQ ID NO: 43 were resistant to reduction by GSH.

[4] = Resistance to reduction by reduced glutathione (GSH), HPLC; assay type: physicochemical; conditions: 10 mM reduced glutathione (GSH); HPLC vs non-reduced peptide
Experimental: This example describes stability of designed or engineered peptides under reducing conditions. Peptides that are designed or engineered to interact with one or more target proteins in the cell, such as proteins in the nucleus, are exposed to reducing conditions in the cytosolic compartment of cells. Thus, it is advantageous for peptides of this disclosure to display stability in reducing conditions. Stability of peptides of this disclosure was tested in 10 mM DTT and 10 mM GSH. GSH is a more physiologically relevant reducing agent for testing peptide stability in intracellular conditions. An example of a peptide-target protein interaction is a peptide binding to a TEAD protein.

[5] = Circular dichroism thermal stability, heating 20° C. to 95° C.; assay type: physicochemical; conditions: 10 mM phosphate buffer pH 7.4; heated 20° C. to 95° C.
Experimental: (§2) Protein secondary structures were assessed using Circular Dichrosim (CD). CD spectra were measured with a Jasco J-720W spectropolarimeter using a 1.0 mm path length cell. Protein samples in 10 mM phosphate buffer (pH=7.4) were at 25-30 μM protein concentration. Samples were analyzed at wavelength ranges of […]. Data were expressed in terms of relative ellipticity [θ]; (mdeg). To determine thermal stability of proteins, samples were subjected to incremental increase in temperature at a ramp of 2° C./min from 20° C. to 95° C. Stability and protein unfolding were monitored at 220 and 215 for α-helix and β-sheet secondary structures, respectively. Data are expressed in terms of relative ellipticity [θ], reported in mdeg. For SEQ ID NO: 43 and its point mutant variants, no changes to the α-helix-dominated structure were observed upon heating up to 95° C. […] Additionally, protein melting temperature (Tm) determination was performed by monitoring protein unfolding using SYPRO Orange dye (Molecular Probes). In brief, 0.1 mg/mL protein sample in 20 μL total volume PBS buffer were mixed with 24, of 10× SYPRO Orange dye. Dye intercalation into the hydrophobic protein core following protein unfolding was assayed using the C1000 Touch Thermal Cycler with CFX96 Deep Well Real-Time System (BioRad). Samples were heated from 20° C. to 95° C. with stepwise increments of 0.5° C. per minute and a 5 sec hold step for every point, followed by fluorescence reading. Tm were calculated by analyzing the derivatives of Relative florescence Units (RFU). FIG. 17D illustrates this SYPRO Orange melting assay of Peptides.

[6] = Resistance to reduction by DTT, RP-HPLC; assay type: physicochemical; conditions: 10 mM DTT; HPLC vs non-reduced peptide
How it was run: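 Peptide (12.5 μg from a 2 mg/ml stock, or 0.015 mM final in PBS) was held 30 min at room temperature with or without 10 mM DTT. Reduced and non-reduced forms were compared by C-18 RP-HPLC using a 5–45% acetonitrile/0.1% TFA gradient over 10 min, with detection at 214 and 280 nm.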

[7] = SYPRO Orange melting assay; assay type: physicochemical; conditions: heating from 20° C. to 95° C.
Experimental: as §2

[8] = Resistance to elevated temperature, HPLC; assay type: physicochemical; conditions: 100° C. for 1 hour; HPLC
How it was run: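 Peptides were incubated at room temperature, 70° C or 100° C for one hour in ddH2O; another protocol used 70° C, 75° C or 100° C for one hour in 0.5 mM PBS, then pelleting and analysis of the supernatant. Remaining peptide was measured by C-18 RP-HPLC, 5–45% acetonitrile/0.1% TFA over 10 min.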

Compound: CC[C@H](C)[C@@H]1NC(=O)[C@@H]2CSSC[C@H](NC(=O)[C@H](CCCCN)NC(=O)[C@@H](NC(=O)[C@H](CC(N)=O)NC(=O)[C@@H](NC(=O)[C@@H]3CCCN3C(=O)[C@@H](NC(=O)CNC(=O)[C@H](CO)NC(=O)CN)C(C)C)[C@@H](C)CC)C(C)C)C(=O)N[C@@H](CCCNC(=N)N)C(=O)NCC(=O)N[C@@H](CO)C(=O)N[C@@H](CCCNC(=N)N)C(=O)N[C@@H](CC(=O)O)C(=O)N[C@H]3CSSC[C@H](NC(=O)[C@H](CCCCN)NC(=O)[C@H](CO)NC(=O)[C@H](CC(N)=O)NC1=O)C(=O)N[C@@H](Cc1c[nH]cn1)C(=O)N[C@H](C(=O)N[C@H](C(=O)N1CCC[C@H]1C(=O)O)[C@@H](C)O)CSSC[C@H](NC(=O)[C@@H]1CCCN1C(=O)[C@H](CC(=O)O)NC(=O)[C@H](CC(C)C)NC3=O)C(=O)N[C@@H](CCCCN)C(=O)N[C@@H](CCCCN)C(=O)N[C@@H](C)C(=O)NCC(=O)N[C@@H](CCSC)C(=O)N[C@@H](CCCNC(=N)N)C(=O)N[C@@H](Cc1ccccc1)C(=O)NCC(=O)N[C@@H](CCCCN)C(=O)N2 [SEQ ID NO: 27] (H-GSGVPINVKCRGSRDCLDPCKKAGMRFGKCINSKCHCTP-OH; disulfide 10-30, 16-35, 20-37)
- resistance to pepsin, Example 7 conditions (in words) (pepsin [1]): remained intact
- resistance to pepsin digestion (in words) (pepsin [1]): highly resistant
- stability in simulated gastric fluid / low pH (in words) [2]: highly resistant; also recorded: remained intact
- resistance to trypsin, Example 7 conditions (in words) (trypsin): remained intact
- resistance to trypsin digestion (in words) (trypsin): highly resistant; also recorded: fully resistant
- resistance in SPTD (SGF, pepsin, Tris, DTT) (in words) (pepsin [3]): highly resistant

Compound: GSGVPINVRSRGSRDSLDPSRRAGMRFGRSINSRSHSTP [SEQ ID NO: 177, reference compound]
- resistance to pepsin, Example 7 conditions (in words) (pepsin [1]): degraded
- stability in simulated gastric fluid / low pH (in words) [2]: stable
- resistance to trypsin, Example 7 conditions (in words) (trypsin): degraded

Compound: GSPDEYIERAKECCKKGDIQCCLRYFEESGDPNVMLICLFCP [SEQ ID NO: 39]
- binding to target protein after DTT treatment (TEAD protein; 5 minutes in 10 mM DTT): partial loss in binding
- binding to target protein after GSH treatment (TEAD protein; 5 minutes in 10 mM GSH): no loss in binding
- resistance to GSH reducing conditions [4]: resistant

Compound: GSPDEYIERAKECCKKQDIQCCLRIFDESGDPNVMLICLFCW [SEQ ID NO: 44]
- CD secondary structure signature before (Pre) and after (Post) incubation at 95° C. [5]: similar; also recorded: identical
- resistance to reduction by DTT (in words) [6]: partially resistant
- melting temperature (Tm) [7]: no melting temperature could be determined

Compound: GSPDEYIERAKECCKKQDIQCCLRIFDESKDPNVMLICLFCP [SEQ ID NO: 45]
- CD secondary structure signature before (Pre) and after (Post) incubation at 95° C. [5]: identical; also recorded: similar
- resistance to pepsin digestion (in words) (pepsin [1]): resistant
- resistance to reduction by DTT (in words) [6]: partially resistant
- resistance to incubation at 100° C. (in words) [8]: resistant
- melting temperature (Tm) [7]: no melting temperature could be determined

Compound: GSQFTNVSCTTSRECWSVCQRLHNTSRGRCMNRRCRCYS [SEQ ID NO: 2]
- stability in simulated gastric fluid / low pH (in words) [2]: remained intact
- resistance to trypsin digestion (in words) (trypsin): highly resistant
- resistance to reduction by DTT (in words) [6]: remained intact; also recorded: highly resistant
- resistance in SPTD (SGF, pepsin, Tris, DTT) (in words) (pepsin [3]): resistant

Compound: PDEYIERAKECCKKGDIQCCLRYFEESGDPNVMLICLFCP [SEQ ID NO: 122]
- resistance to GSH reducing conditions [4]: resistant

From US20190375786A1, “STABLE PEPTIDES AND METHODS OF USE THEREOF” (Fred Hutchinson Cancer Research Center, priority 2016, published 2019)
